In patent US20240150489A1 (ICHNOS SCIENCES, published 2024):
Where a chain is given by its changes, count along the chain named.

B1: Anti-CD38-UCP03-A6 Fab (Fab, V domains shown)
VH: QVQLVQSGAEVKKPGSSVKVSCKASGGDFSLYAISWVRQAPGQGLEWMGGIIPLLGEPVYAQKFQGRVTITADESTSTAYMELSSLRSEDTAVYYCARGHRVYSSSPFDYWGQGTLVTVSS
VL: not shown
notes: human IgG1 Fab
B2: Anti-CD38-UCP03-E3 Fab (Fab, V domains shown)
VH: QVQLVQSGAEVKKPGSSVKVSCKASGGSFSIYAISWVRQAPGQGLEWMGGIIPNSGDTDYAQKFQGRVTITADESTSTAYMELSSLRSEDTAVYYCARGPYDSYGESYFDYWGQGTLVTVSS
VL: not shown
notes: human IgG1 Fab
B3: Anti-CD38-UCP01-C2 Fab (Fab, V domains shown)
VH: QVQLVQSGAEVKKPGSSVKVSCKASGGYLGIYAISWVRQAPGQGLEWMGRIIPILGEADYAQKFQGRVTITADESTSTAYMELSSLRSEDTAVYYCARGGVWWDYWGQGTLVTVSS
VL: not shown
notes: human IgG1 Fab
B4: Anti-CD38-UCP02-F5 Fab (Fab, V domains shown)
VH: QVQLVQSGAEVKKPGSSVKVSCKASGGVFSYYTISWVRQAPGQGLEWMGRIIPSLGATHYAQKFQGRVTITADESTSTAYMELSSLRSEDTAVYYCARSDSFYYAYYMDLWGQGTLVTVSS
VL: not shown
notes: human IgG1 Fab
B5: Anti-CD38-UCP03-B6 Fab (Fab, V domains shown)
VH: QVQLVQSGAEVKKPGSSVKVSCKASGGHISNSAINWVRQAPGQGLEWMGRVIPVIDDAYYAQKFQGRVTITADESTSTAYMELSSLRSEDTAVYYCARSRGYYGSFYFDIWGQGTLVTVSS
VL: not shown
notes: human IgG1 Fab; also called anti-CD38-B6; anti-CD38-B6 Fab
B6: anti-CD38-B6-MP01-C2 FAB (Fab, V domains shown)
VH: B5 VH with H28A, I29F, N31D, S32Y, A33V, N35S
VL: not shown
notes: human IgG1 Fab
B7: Anti-CD38-UCP01-H1 Fab (Fab, V domains shown)
VH: QVQLVQSGAEVKKPGSSVKVSCKASGDFFSGYAINWVRQAPGQGLEWMGRIIPLLGDTYYAQKFQGRVTITADESTSTAYMELSSLRSEDTAVYYCARSAAGWFAYWGQGTLVTVSS
VL: not shown
notes: human IgG1 Fab
B8: Anti-CD38-UCP01-E2 Fab (Fab, V domains shown)
VH: QVQLVQSGAEVKKPGSSVKVSCKASGGSFSNYAIGWVRQAPGQGLEWMGRIIPVFGSAHYAQKFQGRVTITADESTSTAYMELSSLRSEDTAVYYCARGLGYYLYSSYYFDIWGQGTLVTVSS
VL: not shown
notes: human IgG1 Fab; also called anti-CD38-E2; anti-CD38-E2 Fab
B9: anti-CD38-E2-UCP02-A5 FAB (Fab, V domains shown)
VH: B8 VH with V54D, F55L, S57A
VL: not shown
notes: human IgG1 Fab
B10: anti-CD38-E2-UCP01-A10 FAB (Fab, V domains shown)
VH: B8 VH with G27L, S28P, F29D, S30A, N31T
VL: not shown
notes: human IgG1 Fab
B11: Anti-CD38-UCP02-B1 Fab (Fab, V domains shown)
VH: QVQLVQSGAEVKKPGSSVKVSCKASGGQFSFYAINWVRQAPGQGLEWMGEIIPDYGVTHYAQKFQGRVTITADESTSTAYMELSSLRSEDTAVYYCARWSYTYGIRYYYKLFDPWGQGTLVTVSS
VL: not shown
notes: human IgG1 Fab
B12: Anti-CD38-UCP01-F1 Fab (Fab, V domains shown)
VH: QVQLVQSGAEVKKPGSSVKVSCKASGGVFSLYTITWVRQAPGQGLEWMGSIIPLLGDPEYAQKFQGRVTITADESTSTAYMELSSLRSEDTAVYYCARYPYPYGSKYFDIWGQGTLVTVSS
VL: not shown
notes: human IgG1 Fab
B13: Anti-CD38-UCP03-H3 Fab (Fab, V domains shown)
VH: QVQLVQSGAEVKKPGSSVKVSCKASGGVFSQFPISWVRQAPGQGLEWMGGIIAGYGATEYAQKFQGRVTITADESTSTAYMELSSLRSEDTAVYYCARVYGGIDWGQGTLVTVSS
VL: not shown
notes: human IgG1 Fab
B14: Anti-CD38-UCP03-H2 Fab (Fab, V domains shown)
VH: QVQLVQSGAEVKKPGSSVKVSCKASGGEFSIYVISWVRQAPGQGLEWMGRVIPSTGDTNYAQKFQGRVTITADESTSTAYMELSSLRSEDTAVYYCARGKAYYSGWLAIWGQGTLVTVSS
VL: not shown
notes: human IgG1 Fab
B15: Anti-CD38-UCP02-H1 Fab (Fab, V domains shown)
VH: QVQLVQSGAEVKKPGSSVKVSCKASGDKFNTYAISWVRQAPGQGLEWMGGITPRYDYAHYAQKFQGRVTITADESTSTAYMELSSLRSEDTAVYYCARSWGFRAGYLDYWGQGTLVTVSS
VL: not shown
notes: human IgG1 Fab
B16: Anti-CD38-UCP02-B7 Fab (Fab, V domains shown)
VH: EVQLVESGGGLVKPGGSLRLSCAASGFSFNEAWMTWVRQAPGKGLEWVGRIKSYSDGGYTGYAAPVKGRFTISRDDSKNTLYLQMNSLKTEDTAVYYCARSPGIPYHYFDVWGQGTLVTVSS
VL: not shown
notes: human IgG1 Fab
B17: Anti-CD38-UCP02-A7 Fab (Fab, V domains shown)
VH: EVQLLESGGGLVQPGGSLRLSCAASGFTFSFYDMSWVRQAPGKGLEWVSTITLHGGDTYYADSVKGRFTISRDNSKNTLYLQMNSLRAEDTAVYYCARDPSYIYSTSGYFDYWGQGTLVTVSS
VL: not shown
notes: human IgG1 Fab
B18: Anti-CD38-UCP02-D5 Fab (Fab, V domains shown)
VH: QVQLVQSGAEVKKPGSSVKVSCKASGGIFSVHAIHWVRQAPGQGLEWMGEIIPVIGEADYAQKFQGRVTITADESTSTAYMELSSLRSEDTAVYYCAREQYYYALGGGFDYWGQGTLVTVSS
VL: not shown
notes: human IgG1 Fab
B19: Anti-CD38-UCP01-B1 Fab (Fab, V domains shown)
VH: QVQLVQSGAEVKKPGSSVKVSCKASGGDFDQYYISWVRQAPGQGLEWMGRIIPTLGDSQYAQKFQGRVTITADESTSTAYMELSSLRSEDTAVYYCARAVIVSPYYYIYVFDVWGQGTLVTVSS
VL: not shown
notes: human IgG1 Fab
B20: Anti-CD38-UCP02-D1 Fab (Fab, V domains shown)
VH: B19 VH
VL: not shown
notes: human IgG1 Fab
B21: Anti-CD38-UCP01-G1 Fab (Fab, V domains shown)
VH: QVQLVQSGAEVKKPGSSVKVSCKASGGGFSKYFITWVRQAPGQGLEWMGGVIPKIGYTSYAQKFQGRVTITADESTSTAYMELSSLRSEDTAVYYCARGSDDYASYSPLDSWGQGTLVTVSS
VL: not shown
notes: human IgG1 Fab
B22: Anti-CD38-UCP03-B1 Fab (Fab, V domains shown)
VH: B21 VH
VL: not shown
notes: human IgG1 Fab
B23: Anti-CD38-UCP03-B3 Fab (Fab, V domains shown)
VH: QVQLVQSGAEVKKPGSSVKVSCKASGGDFTLYSISWVRQAPGQGLEWMGRIIPTGANANYAQKFQGRVTITADESTSTAYMELSSLRSEDTAVYYCARSWPSLGSGWFDIWGQGTLVTVSS
VL: not shown
notes: human IgG1 Fab
B24: Anti-CD38-UCP02-E5 Fab (Fab, V domains shown)
VH: QVQLVQSGAEVKKPGSSVKVSCKASGGGFRHYFISWVRQAPGQGLEWMGGIIPAAATPYYAQKFQGRVTITADESTSTAYMELSSLRSEDTAVYYCARGYWHWFDYWGQGTLVTVSS
VL: not shown
notes: human IgG1 Fab
B25: Anti-CD38-UCP03-C3 Fab (Fab, V domains shown)
VH: QVQLVQSGAEVKKPGSSVKVSCKASGGKFSNYAISWVRQAPGQGLEWMGRIIPQIGDAAYAQKFQGRVTITADESTSTAYMELSSLRSEDTAVYYCARASFLYYSYYFDYWGQGTLVTVSS
VL: not shown
notes: human IgG1 Fab
B26: Anti-CD38-UCP02-C3 Fab (Fab, V domains shown)
VH: QVQLVQSGAEVKKPGSSVKVSCKASGDYFNNYAINWVRQAPGQGLEWMGRIIPFLDDANYAQKFQGRVTITADESTSTAYMELSSLRSEDTAVYYCARATSPLYSYYFDYWGQGTLVTVSS
VL: not shown
notes: human IgG1 Fab
B27: Anti-CD38-UCP03-C2 Fab (Fab, V domains shown)
VH: B25 VH with K28T, R50G, Q54A, I55F, A59G, A99G, S100R, F101V
VL: not shown
notes: human IgG1 Fab
B28: Anti-CD38-UCP02-F2 Fab (Fab, V domains shown)
VH: QVQLVQSGAEVKKPGSSVKVSCKASGDVFSLLAIGWVRQAPGQGLEWMGRIIPSLDATHYAQKFQGRVTITADESTSTAYMELSSLRSEDTAVYYCARGRDVLRSYYFDIWGQGTLVTVSS
VL: not shown
notes: human IgG1 Fab
B29: Anti-CD38-UCP02-F6 Fab (Fab, V domains shown)
VH: EVQLLESGGGLVQPGGSLRLSCAASGFTFSFYDMSWVRQAPGKGLEWVSAVSLYGDETYYADSVKGRFTISRDNSKNTLYLQMNSLRAEDTAVYYCAREPVSYDYYGSYFDYWGQGTLVTVSS
VL: not shown
notes: human IgG1 Fab
B30: Anti-CD38-UCP03-H5 Fab (Fab, V domains shown)
VH: QVQLVQSGAEVKKPGSSVKVSCKASGGLFSFYAISWVRQAPGQGLEWMGGIIPFFGEPQYAQKFQGRVTITADESTSTAYMELSSLRSEDTAVYYCARGSYRFDVWGQGTLVTVSA
VL: not shown
notes: human IgG1 Fab

Assays:
[1] = target: T1, recombinant biotinylated human CD38 Avitag, His Tag (Acrobiosystems, CD8-H82E7) (human, UniProt P28907 43-300, biotinylated (Avitag)); assay: SPR, biotinylated CD38 captured, Fab analyte, 1:1 fit;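 note: biacore T200 at 25 °C, single-cycle kinetics with Fab injected at 7.8–2000 nM for 3 min, dissociation followed 5 min, reference flow path subtracted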
T1 construct: Bought protein; also called biotinylated human CD38-avi-his protein; biotinylated recombinant human CD38 protein
Method: (§1) Surface plasmon resonance (SPR) was used to measure the binding affinities of the Fab fragments for human and cynomolgus monkey CD38. Affinities were measured on a Biacore T200 instrument (Biacore, GE Healthcare) at 25° C. and analyzed with the Biacore T200 Evaluation Software (v3.1).
(§2) The affinities to human and cynomolgus monkey CD38 were assessed by immobilizing CD38 and using Fab fragments as analyte. Biotinylated recombinant human CD38 protein was immobilized to around 160 RU on flow-path 2 of a Series S Sensor Chip SA or to around 100 RU on flow-path 2 of a Series S BiotinCAPture Chip and recombinant cynomolgus monkey CD38-his protein was immobilized to around 50-100 RU on flow-path 2 of a Series S CM5 Sensor Chip previously coated with anti-histidin antibody. Fab fragments were injected in single cycle kinetic at different concentrations ranging from 7.8 to 2000 nM, in HBS-EP+ buffer (Biacore, GE Healthcare, catalog NO: BR100669) at a flow rate of 30 μl/min for 3 min on flow-path 1 and 2 (flow-path 1 being used as reference). Dissociation was monitored for 5 min.

[2] = target: T2, recombinant cynomolgus monkey CD38-ECD-C-his (cynomolgus monkey, UniProt Q5VAN0 45-301); assay: SPR, His-captured cyno CD38, Fab analyte, 1:1 fit
T2 construct: Extracellular region fused to 6-His; also called cyno CD38-C-His; recombinant cynomolgus monkey CD38 protein
Method: as §1, §2

[3] = target: T3, recombinant human CD38-ECD-C-his (human, UniProt P28907 43-300); assay: SPR, Fab captured as ligand, CD38 analyte
T3 construct: Extracellular region fused to 6-His, made in house; also called human CD38-C-His; recombinant human CD38 protein
Method: Affinities of the Fab to human and cynomolgus CD38 using the Fab as ligand were measured on a Biacore T200 instrument (Biacore, GE Healthcare) at 25° C. and analyzed with the BiacoreT200 Evaluation Software (v3.1). […] The affinities to human and cynomolgus monkey CD38 were assessed by immobilizing Fab fragments and using human or cynomolgus monkey CD38 protein as analyte. Around 50-200 RU of Fab was captured on flow-path 2 of a Series S CM5 Sensor Chip coupled with anti-human Fab antibodies. Human or cynomolgus monkey CD38 was injected in multi cycle kinetic at different concentrations ranging from 0.2 to 100 nM, in HBS-EP+ buffer (Biacore, GE Healthcare, catalog NO: BR100669) at a flow rate of 30 μl/min for 5 min on flow-path 1 and 2 (flow-path 1 being used as reference). Dissociation was monitored for 10 min. […] Experimental data were processed using the 1:1 Langmuir kinetic fitting model. Measurements included zero-concentration samples for referencing. Chi², U- and residual values were used to evaluate the quality of a fit between the experimental data and individual binding models.

[4] = target: T1, recombinant biotinylated human CD38 …; assay: SPR, biotinylated CD38 captured, Fab as analyte
[5] = target: T2, recombinant cynomolgus monkey …; assay: SPR, His-captured cyno CD38, Fab as analyte

Binder | Kd [1] [nM] | Kd [2] [nM] | Kd [3] [nM] | Kd [4] [nM] | Kd [5] [nM]
B1 | 410 | 525 | – | – | –
B2 | 300 | 195 | – | – | –
B3 | 85.3 | 53.5 | – | – | –
B4 | 71.1 | 55.2 | – | – | –
B5 | 225 | 829 | – | – | –
B6 | – | – | 345 | 209 | –
B7 | 437 | 352 | – | – | –
B8 | 110 | 88.9 | – | – | –
B9 | – | – | 35 | 23.6 | 4.4
B10 | – | – | 16.9 | 9.4 | 8.6
B11 | 595 | – | – | – | –
B12 | 429 | 393 | – | – | –
B13 | 810 | 178 | – | – | –
B14 | 1850 | 672 | – | – | –
B15 | 154 | 2.7 | – | – | –
B16 | 1710 | – | – | – | –
B17 | 71.1 | – | – | – | –
B18 | 192 | 33.5 | – | – | –
B19 | 193 | 102 | – | – | –
B20 | 133 | 78 | – | – | –
B21 | 1120 | 283 | – | – | –
B22 | 882 | 462 | – | – | –
B23 | 115 | 170 | – | – | –
B24 | 0.03 | – | – | – | –
B25 | 117 | 465 | – | – | –
B26 | 305 | 188 | – | – | –
B27 | 1390 | 628 | – | – | –
B28 | 14.2 | 14 | – | – | –
B29 | 389 | – | – | – | –
B30 | 142 | 111 | – | – | –
